Results: PMC3091952

Key:
Assay in all cases: pull-down
[1] = molecular target: PAD4 R123Q, labelled with BFA (human) (UniProt Q9UM07)
[2] = molecular target: PAD4 R484Q, labelled with BFA (human) (UniProt Q9UM07)
[3] = molecular target: PAD4 R609Q, labelled with BFA (human) (UniProt Q9UM07)
[4] = molecular target: PAD4 R639Q, labelled with BFA (human) (UniProt Q9UM07)
[5] = molecular target: PAD4 R419Q, labelled with BFA (human) (UniProt Q9UM07)

| fold reduction of affinity against wild type PAD4 [1] | fold reduction of affinity against wild type PAD4 [2] | fold reduction of affinity against wild type PAD4 [3] | fold reduction of affinity against wild type PAD4 [4] | fold decrease of affinity against wild type PAD4 [1] | fold decrease of affinity against wild type PAD4 [5] | fold decrease of affinity against wild type PAD4 [2] | Substance |
| --- | --- | --- | --- | --- | --- | --- | --- |
| 2 fold | 10 fold | 3.3 fold | 5 fold |  |  |  | Protein Arginine Methyltransferase 1 (PRMT1) (from UniProt Q99873 1-371) (enzyme) |
|  |  |  |  | 3.3 fold | 1.4 fold | 1.4 fold | Histone Deacetylase 1 (HDAC1) (from UniProt Q13547 1-482) (enzyme) |
